{"source": "a protein production outcome set (Wang et al. 2014)", "data": [{"assay": "label from the status in PepcDB records", "values": [{"sequence": "MTDDVDDGWAASAAAWIIEQGEDGDYGRRFVLDAPMRARIEGRGFRNALDVGCGEGRFCRIMQRAGIRTTGIDPTEALLARARELDPRGDYRLGRAETMDIDACFDLVVSYLSLIDIPDLGTAIAKMVGALRPGGTLLIANLTSFNTAGQPDGWARDRKGEMRFAIDHYMDERPIWLSWRGIRLQNWHRPLGTYMTLLLDHGLQLRLFVEPEPTSGDPRRNDLHRRVPYFHMMEWQKPA", "protein production": "failed"}, {"sequence": "MTDESSVRTPKALPDGVSQATVGVRGGMLRSGFEETAEAMYLTSGYVYGSAAVAEKSFAGELDHYVYSRYGNPTVSVFEERLRLIEGAPAAFATASGMAAVFTSLGALLGAGDRLVAARSLFGSCFVVCSEILPRWGVQTVFVDGDDLSQWERALSVPTQAVFFETPSNPMQSLVDIAAVTELAHAAGAKVVLDNVFATPLLQQGFPLGVDVVVYSGTKHIDGQGRVLGGAILGDREYIDGPVQKLMRHTGPAMSAFNAWVLLKGLETLAIRVQHSNASAQRIAEFLNGHPSVRWVRYPYLPSHPQYDLAKRQMSGGGTVVTFALDCPEDVAKQRAFEVLDKMRLIDISNNLGDAKSLVTHPATTTHRAMGPEGRAAIGLGDGVVRISVGLEDTDDLIADIDRALS", "protein production": "not failed"}, {"sequence": "MTDIHPREILICTIAKLLDGVRHVAVGASSPIPASGAMLLRALKQQAGETGPRISILGSVEHNFFTNGSAELFDCAGQGRIDAFFLGGGQIDGQGNINLVGTGEYPQTQVRWPGSFGSAYLYYVVPRVILFREEHTPRAMVEKVDFISAPGLSDEGVYRPGGPIALLTSKALFRFDKNRRGFELESVHPGYDLAAIKEATGFKFAHDDVPAQTALPDPQVLKLLRERVYDEVAETYPDFAAQMRREIAQPLPRAS", "protein production": "failed"}, {"sequence": "MTDIRKAATLVVIRDGANKDIEVLVVRRAKTMRFLPGFVAFPGGAADPSDAEMAKRAFGRPVCAEDDDDPALAVTALRETAEEIGWLLAVRDGEGTKMDTPLAPDEQADLCKGGDALSAWLSARGLAFDLGLLRRIGRFVTPPTQPVRFDTRFFLCVGQHLGEPRLHGAELDAALWTPARDMLTRIQSGELPAVRPTIAVLKALVACPNAEIAMSTLSIGPLPPPAPRA", "protein production": "not failed"}, {"sequence": "MTDQRFKIVFSGELMPDASLETVKDNLARLFKSEPGKIDALFGGRPVVLKRELPEAEAERYLTALRQAGANAYKEVDLAASLSLVETPDHNPQVAEETPAQDLPPMTCPKCGHEQPSGAECSACGVIIEKYLARQAQLGENAAPAATAAAGASPYTPPSAQVGDTLPEFGELNVFTTNGRIGRLRYLGWSMAMTLCFLVIMGLGFLLGETVGVAVTALASIAFIVIAVMIGVQRLHDLGWSGWLWLLNFVPFVGSVFGILMLVLPGSTGANRYGPPPPANSTGVKVLASLIILLPIVGIIAAIALPSYQGYLERANYDGGASAPADPYTTDEQAAAAAAEADEAATAAAEAMEDDDQQ", "protein production": "failed"}, {"sequence": "MTDQTKPSWTADRGADLLGALFFLTRLPTPTTHTPPPFTRAVWAFPLAGALVGLIGALAVGGAQALGLSPTLAALLGVSVMALVTGAMHEDAVADIADGFGGGRTRERVLEIMRDSRVGAFGVTALVLVLALRVAALAALAGGPWAMAALVCAAGLGRGAAVLMLGLLPPARTDGLGASFGRPQQASLAFALILCLVLAVVLLPGAAPAVALVGMVAPTLYLAWRAKVRIGGQTGDVAGAAALIGETLALVGLSAMLGAAP", "protein production": "failed"}, {"sequence": "MTDTLFKIMFEGQVRDGVEPETAKANLAGLFKSETAAVQKLFNGEPIALKRGLVHAEAERYIEALKEAGVEARIEPDQAISFNLNEVGNQASPWTPARQAPQDASPYAPPKAQVGSEHYGHSTLKVFTTNGRIGRLRFLAWSMVQCVALVALIALALIVLNWSLVAGGLLIAVLVVVFVTIGVMIGVQRLHDLGWSGWLLLLNLVPFVGSLFPFLIMLLPGTRGANQYGPPPPPNTRGVKVLGIIWIAMIPVISVASIYYSIGKLAEAELALQTDEYEQSLPYDDEQEPGSALNAPADVIEEPQDQNDKQ", "protein production": "failed"}, {"sequence": "MTDWIQNLMDSMGYLGILLLMVLENVFPPIPSELIMPSAGFAAARGDMSLGMVVLMGTLGSVIGTLPLYYIGRAFGEDKLVAWADKHGKWLTLSGKDIKKADAWFDRYGAGAVLFGRMVPGIRSLLSLPAGMSEMPLPKFLIYSAIGSALWSAALAYAGYALGENYDRVEQYVAPVSKVIVGLLVIGAAAWFIRRKREQGSRTGG", "protein production": "failed"}, {"sequence": "MTEAPRKITDDPYGAWHLIRRLVMEQASAYWRRYALAFGLMAIAAAATSGSAFLLGKVINQAYVDRDLQGIMFWSVVTLVVFSLKGAATYGQSVILTQIKNAILANNQRRMFHKLMSESIGFFSQRHSSEFLARLTAGANSVTEVLNLLINAIGRDLLSLIGLVIVMVVQDPFMALFGLLVAPPAAFVVRKLVKRVKGLALTQFTGNAQILETMQESLQGIRTVKAFSLEKTMSDRIDANIAAVQANADKMAKVSNRSSPLMETLGGFAVAASLMYGGYRVVATGATPGEFFSFLTAFLLAYEPAKRLARLNIELNSGLVGARMLLEIIDSPPSEPDDSHKPALQLTEARVEFDHVSFAYRPDEPVLNAMSFVAEPGKMTALVGPSGGGKSTVLALLLRLYEVQSGEIRIDGQSTSTVSRESLRRQTAYVGQDVYLFRDTVRANIAFGKLGATEDEIVAAAKAACAHDFIMGFPLGYDTPVGEHGAQLSGGQRQRIAVARALLRDAPIVLLDEATAALDSESEKLVQEAIDRLARGRTTIVIAHRLHTIMHADSILVVEAGEIVEQGRHDDLLRRSGRYASFFRLQQRHATPLAPADATA", "protein production": "failed"}, {"sequence": "MTEEQLQALRAAISVCRRCRDEPARGEGHRLPHEPRPVAVLSASARILIAGQAPGLRVHESGLPFNDASGDRLRQWLSVDRAAFYDQRNFAIVPMGFCFPGYDRHGSDLPPRSECAPLWRQRAMDAMPQIELVLAVGHYAQRWHLGTDCPKSMTETVRNWQRYAKRNSGISVLPLPHPSWRNTGWLRRHPWFEAELLPFLRERVQALTI", "protein production": "failed"}, {"sequence": "MTEFKVVHTICPYCGTGCGIDLVVKDGKVVDSHPFKRHPVNEGKVCIKGNYCYEFVHSEDRLTKPLIKKNGEFIEATWDEALDLIAGKLKQYSPEEVAFFSCARGTNEESYALQKFARTVMKTNNVDHCARI", "protein production": "failed"}, {"sequence": "MTEIATIEKPAQHGATTRLIDIVFPGDTNHHGTLFGGTGLALMDRVAFIAATRFGRTPFVTASCERIDFRQPARIGHIVEFTARPVKAGRRSLTVEVEMVAETIIGRQQHTCTRGIFHMVAIPEGEDAASYVLPELLTEETPDPSDAVTMVEIVFPDQANSAGRMFGGEAIAYMTKAAFVAASRYCGKLVVLASSERIDFARAIEIGEIVEAQAHVERVGRSSMSIQTKLWSENLLTGERHITATGHFTMVAVDKDHRPATIRDPAEAFSLEKGGA", "protein production": "not failed"}, {"sequence": "MTEITGGTLVLVGADHPVAHLDVTAFEASVTHDVMAASVAGTGLGVSTATAAGLSHLVVDAGVAQPVQGARSVRIRGERGDLRHADAMTPVQVEALLRDGQALGAEASHDGLVCLGEVGVGNTTIATALACAMTGLGPDEAVGLGAGSDTAMVERKAEIIKAALTRTHTDPNDPERLLAALGGPEFAVLAGVCLGAAEAGSPVVLDGLATSVAALIATKFSPGLHGWLVASQASREQVHHIVLAELGLEALMELRMRAGLEHHHHHH", "protein production": "failed"}, {"sequence": "MTEKTIRVLVAGLGNMGRSHALAYHNNPGFEIVGLVNRSTPELAAELQGYTIHPDFMTALAELKPDLCSINTYSDSHADYAVAAFEAGCDVFVEKPLATTVADAERVVAAAGKAGRKLVIGYILRHHPSWMKLIGEARKLGPPYVFRMNLNQQSSGPTWATHKSLMRTTSPIVDCGVHYVDVMCQITDARAVEVRGMGLRMSDEIAADMYNYGHLQVLFEDGSVGWYEAGWGPMISETAFFVKDVMSPKGAVSIVMDPNAKSDDIDTHTKTSVIRLHTAETGPDGKFIRPDQDMTMEGEPGHQALCDLEQAFMLRAIREDLDLDRHMADAVASLRICLAADESVRTGQPVRL", "protein production": "failed"}, {"sequence": "MTELAQLQASAEQAAALLKAMSHPKRLLILCMLSGSPGTSAGELTRITGLSASATSQHLARMRDEGLIDSQRDAQRILYSIKNEAVNAIIATLKNVYCP", "protein production": "not failed"}, {"sequence": "MTELDQFWPACLARLEAELSSQQFNTWIKPLTAEAGDEGIALFAPNRFIMQFIKDRFLPRIEELAVELVGELPVELRLGAPTARPAAPVAGNSQPKAKEPAKAAASAPAAPSPAKQAAVKAIGGSHESTRLNPSFTFDTLVTGKGNQLARAAAMQIAENPGDQAYNPLFVYGGVGLGKTHLIQAIGNHVFQKNPQAKIRYIHAERYVADIMRAYQHKAFDEFKRYYHSLDLLLIDDIQFFAGKNRTQEEFFYAFNALIEGGKQVIMTCDSYPKQIEGMEERLISRFSWGLTVEIQPPELEMRVAILMKKAEADSIKLEHNVAFFIAQNVRSNVRELEGALKRVVAYARFTSQNITLELVKEALKDILAAGNRQVTVDAIQKTVAEYYKIKLSDMHSKKRSRDIARPRQVAMALAKELTQLSLPNIGDAFGGRDHTTVLHACKTITEMRASDADIAHDYEALLSMLRNLEHHHHHH", "protein production": "failed"}, {"sequence": "MTELFIFDREDQLLTTLTESTGLVRALFREELNRVPNQPFAFTIEASSEEAKHVIEEHQVVFRDKEGDLRLFVIKELEDVDGLDGPQTTAICEPAFMELAEHMIVEQSVVNQPAHEALNVALQGTRWTGSVEVNLGNATEHFSYVSAIEAVWNILVTWGGDFKDVVTFNAENRITSHQIKIVQRRGVDRGKRFEIDHNIEQIERTILSYPVTALYGRGASLQGENGEDGSLDFGEVEWRKSAGAPVDKPKGQLWVGDPEALQKYGRKHNGQLLHREGIFQNTNIEDPEELLEKTWEQLQKSSKPEVHYRLSVRLFEHISGYEHEQASLGDTAIAIDRQFSRPIEIQSRIIAIEYDLVDIDGTGMVEMGQFLSLNGMDERLERIIEEIEKNQGKWGSSGTITRDKYPDIKPSAPVNLRAESGFQAIQLYWDYADELYIEHYEVYGSQVSDFVPDSQHLLWRGKVSAFAHFVDKDQQWYYYVRAVNFHGRPSDWSDKVSGSTQRIISDDILFGPDLAERLRELNRISDIIGEGGVNFEQISDHAKALLNQEARQYTDEEIRAVEDAINAELAEKAGLTYVEGKFSLIDSELEAVDGKFVSVSTQLAEIETEISLKAEQTQVDVIEGEITNVAQDLSQLTVSVNGVQSEVTSIRSGIGHLVEIVNGKATEYKLHFSFNASRDYLVLLTRADLTGARNYVAGTFFGRRVSGNVGSGKIEVIFNNSSNGDRASGYFEASEIQTLNGWSMVTCDYKGEKYIALRHQLPNEHDIWNTDTRFYGQIGSDSEMLLPVDNWGGNPDITNIQPFESSRPVATPIMRAETRIDQNSQQIALRATEINSLAGRMTQAEAELSVQATEIAARVEKDGIVTALNLSPEGIRIKGSLIHLDGTTLINDGVIQNAHIANAAITRAKLDTAVIGTAQIEDLAVTSAKIASVNADKINAASLSAISANLGTVTAGVMRSNNNNMELNLNTGTLNMRNTNFTLGSGADIEFTDPGNRLYFKQYDPVGNITRSAGFGIGRSINDRFPYGFLGTTNTTKPNPIDDQNFTGFITNTNQRMITDGIGNSVVGRIFHIRDQAVSFRKGVAFNFSDSTTMNIFPINTGSYDYVFGSNNNKWKDIHADNIRAAQVYIRNPVGTGGYLFETQPESGSATMVFRGINVSFSDWNYNLGTSSAPWNFGRINHLRPSGSSHSVGSFSERYNFVYTNTLVEGSDIKIKSDIKNSFLGLAFIKDLRPVDFQLVENEQYKTGLIAQEVAAELEHHGIDLEKQTIVTINDSVMGVSYTQLIAPTIKAIQELDSYVRDEVNSLKLENQRLKEKITKLEEKIA", "protein production": "failed"}]}]}
